Measured values as given in paper PMC5350519.

Legend:
[1] = target: CENP-A^TAP (carboxy-terminally TAP-tagged CENP-A) (human) (UniProt P49450); assay: co-IP
[2] = target: CENP-A^LAP (CENP-A tagged at an endogenous allele with a LAP tag) (human (endogenous in HeLa)) (UniProt P49450); assay: co-IP

fold depletion of histone H3 in the purified complexes against the input [1] [fold]	stoichiometry N (CENP-A molecules in a complex) [2]	percent of the total CENP-A in the affinity-purified complexes [1] [%]	stoichiometry N (CENP-A molecules in a complex) [1]	Substance
6250				histone H3 (from UniProt P68431 1-136) (natural protein)
	2	9 to 13	> 2	untagged endogenous CENP-A (from UniProt P49450 1-140) (natural protein)
